{"source": "the supplement of paper PMC9942255"}
{"tested_on": "Bacillus subtilis DB104 (SP-AmyQ fusion secretion)", "assay": "AmyQ secretion efficiency, weighted average sort bin (1 = best secretion, 10 = worst) (bin number (weighted average, 1-10)); higher = lower secretion efficiency", "in_short": "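Secretion score gives the read-frequency-weighted average bin number, normalised to beads per bin, with low-abundance sequences left out. A B. subtilis DB104 library expressing mature AmyQ fused to designed signal peptides, integrated at amyE, was encapsulated with fluorescein-starch at about 0.3 cells per ~65 nL alginate bead. Beads were grown about 13 h at room temperature, stained with nile red, and the occupied ones were sorted by large-particle flow cytometry into 10 equally populated bins by green/red fluorescence ratio before the amplicons from each bin were Illumina-sequenced.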"}
{"sequence": "MKRIRIPMTLALGAALTIAPLSFASYEEN", "AmyQ secretion efficiency": 6.51}
{"sequence": "MKKTIMSFVAVAALSTTAFGAHASGKEI", "AmyQ secretion efficiency": 2.91}
{"sequence": "MLKKKWMVGLLAGCLAAGGFSYNAFATEE", "AmyQ secretion efficiency": 3.49}
{"sequence": "MLCVMMLLFSAIAPDPSGAQAKDQ", "AmyQ secretion efficiency": 4.72}
{"sequence": "MKLKKRVSMSSMFLVALTMCGGLFVTPAKAVKT", "AmyQ secretion efficiency": 1.95}
{"sequence": "MKKTIMSFVAVAALSTTAFGAHPTASAKEI", "AmyQ secretion efficiency": 2.53}
{"sequence": "MKKTIMSFVAVAALSTTAFGAHISAKEI", "AmyQ secretion efficiency": 4.65}
{"sequence": "MKKCLLFLTTIALILKRRTNAFAKNT", "AmyQ secretion efficiency": 7.37}
{"sequence": "MKSKWMSGLLLVAVGFSFTQVMDHAGET", "AmyQ secretion efficiency": 6.14}
{"sequence": "MKVLLSALLLLLFAFEPSASGASL", "AmyQ secretion efficiency": 2.94}
{"sequence": "MKKQIKKKKTAVVLGSTLFAGAASAQSI", "AmyQ secretion efficiency": 7.3}
{"sequence": "MRKLWISLLFALTLIFTMAFSNMSAQAAGK", "AmyQ secretion efficiency": 2.67}
{"sequence": "MTTKFTALAVFLLCFMPAAVIEHTQASLL", "AmyQ secretion efficiency": 5.46}
{"sequence": "MKKLLAAGIIGLLTVSIASPIFAAEK", "AmyQ secretion efficiency": 1.99}
{"sequence": "MNKFLKSNFRFRRKRKKGISLLASSNFIKASND", "AmyQ secretion efficiency": 8.33}
{"sequence": "MKRFLIGAGVAAVILSGWFIADHQTHGQEM", "AmyQ secretion efficiency": 5.37}
{"sequence": "MKTKTLFIFSAILTLSIFAPNEAFAQTA", "AmyQ secretion efficiency": 1.47}
{"sequence": "MTMLRKIIGWILLLCIIPLFAFTVIDSGKEV", "AmyQ secretion efficiency": 6.22}
{"sequence": "MLCVMMLLFSAIAVSFPVSAQAKDQ", "AmyQ secretion efficiency": 5.09}
{"sequence": "MNKPTKLFSTLALAAGMTAAAAGGAGTCHAQQP", "AmyQ secretion efficiency": 1.79}
{"sequence": "MPYLKRVLLLLVTGLAVTATASAQTG", "AmyQ secretion efficiency": 1.97}
{"sequence": "MRFTKVRRKKSVLGLAAVFPLTAQAEKA", "AmyQ secretion efficiency": 7.85}
{"sequence": "MKRRKNVCLTALLSVLLVAGSVPFHAEAKKP", "AmyQ secretion efficiency": 2.59}
{"sequence": "MLKNRILALFVLSLGLLSFMVTPVSAASK", "AmyQ secretion efficiency": 1.67}
{"sequence": "MKKSQYFIVFICFFVLFSVHPIAAAAASS", "AmyQ secretion efficiency": 2.35}
{"sequence": "MKKWMITIAMLILAGIALFVFISPFKSHKT", "AmyQ secretion efficiency": 6.23}
{"sequence": "MMVCMKSIVRFLVSLIIGTFVISVPFMANAQSD", "AmyQ secretion efficiency": 2.06}
{"sequence": "MMSLLSTLLIGIMLLTFAPSAFAKQD", "AmyQ secretion efficiency": 1.88}
{"sequence": "MKKKLAAGLTASAIVGTTLVVAEAATI", "AmyQ secretion efficiency": 5.78}
{"sequence": "MRPVFPLILSAVLFLSCFFGARQTELSASKR", "AmyQ secretion efficiency": 3.47}
{"sequence": "MKRTRIPMYLALGAALTIAPLSFASAEEN", "AmyQ secretion efficiency": 3.6}
{"sequence": "MFNRLFRVCFLAALIMAFTLPNSVYAQKR", "AmyQ secretion efficiency": 2.62}
{"sequence": "MKKRKRRNFKRFIAAFLVLALMISLVPADMLAKST", "AmyQ secretion efficiency": 1.76}
{"sequence": "MKLKSKLLLSCLALSTVFVATTILNAPTH", "AmyQ secretion efficiency": 6.08}
{"sequence": "MKKWIYVKKKKKKAGIGGFSVHAASS", "AmyQ secretion efficiency": 6.75}
{"sequence": "MKRWMRKTLVVLFTIVTFGLVSPPAALMADKP", "AmyQ secretion efficiency": 2.03}
{"sequence": "MLFNTSFVSSLFISSAVLLSILLPSGQAHAQSA", "AmyQ secretion efficiency": 2.42}
{"sequence": "MPYLKRVLLLLVTGLFMSLFAVTATASDQTG", "AmyQ secretion efficiency": 1.01}
{"sequence": "MKKKIVAGLAVSAVVIVAMAAAIAEAKTI", "AmyQ secretion efficiency": 6.55}
{"sequence": "MKKIMSAFVGMVLLTIFCRRRQASAAYD", "AmyQ secretion efficiency": 7.16}
{"sequence": "MSKAAAVLLSLGLVFGFSYGAGHVAEAKTK", "AmyQ secretion efficiency": 2.88}
{"sequence": "MKKRFSLIMMTGLLFGLTSPAFAAPE", "AmyQ secretion efficiency": 3.06}
{"sequence": "MKKKIRRRKAVSAVVGSSMAAAPAEAKTI", "AmyQ secretion efficiency": 5.54}
{"sequence": "MKVPKTMLLSTAAGLLLSLTATSESAHYV", "AmyQ secretion efficiency": 6.28}
{"sequence": "MLKKKWMVGLLAGCLAAGGFSYNAFFTEN", "AmyQ secretion efficiency": 6.5}
{"sequence": "MKWMCSICCAAVLLAGGAAQHEAV", "AmyQ secretion efficiency": 8.16}
{"sequence": "MPIKKKVMMCLAVTLVFGSMSFPTLTNSGGDED", "AmyQ secretion efficiency": 6.4}
{"sequence": "MKSKWMSGLLLVAVGFSFTQVMFHAGET", "AmyQ secretion efficiency": 6.46}
